From US20210284724A1 (I MAB BIOPHARMA US, published 2021)

Columns and labels:
human CXCL13 [1] = target: T1, human CXCL13 (human, UniProt O43927 23-109); test: ELISA, coated antigen
T1 construct: also called huCXCL13; rhCXCL13
T1 sequence (looked up): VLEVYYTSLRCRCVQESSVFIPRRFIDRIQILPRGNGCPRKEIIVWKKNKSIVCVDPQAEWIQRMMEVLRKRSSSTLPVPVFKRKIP

cynomolgus CXCL13 = target: T2, cynomolgus CXCL13 (cynomolgus, UniProt H6WS58 23-109); test: ELISA, coated antigen
T2 construct: also called cynoCXCL13; Cyno CXCL13
T2 sequence: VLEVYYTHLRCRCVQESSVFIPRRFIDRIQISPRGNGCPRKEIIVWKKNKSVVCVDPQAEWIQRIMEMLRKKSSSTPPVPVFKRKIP

mouse CXCL13 = target: T3, mouse CXCL13 (mouse, UniProt O55038 22-109); test: ELISA, coated antigen
T3 construct: also called rmCXCL13
T3 sequence (looked up): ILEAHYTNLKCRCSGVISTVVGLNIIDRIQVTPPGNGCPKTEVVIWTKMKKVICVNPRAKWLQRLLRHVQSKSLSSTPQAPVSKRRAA

human CXCL13 [2] = target: T1, human CXCL13; test: cell-based blocking ELISA, CXCL13 to CHO-K1-CXCR5
Method: Splenocytes were electro-fused with mouse myeloma cell line SP2/0 cells and plated into 96-well culture plate. The hybridoma supernatants were tested by ELISA binding assay for anti-human CXCL13 binders. Supernatants of positive binding clones were screened for function in blocking of human CXCL13 binding to its […] CXCR5 by Cell-based receptor blocking ELISA assay. Briefly, 5×10⁴ CHO-K1-CXCR5 cells were plated in 96-well plate with 100 μl of culture medium and incubated at 37° C. overnight. Cells were fixed with 100 μl of 2% PFA at RT for 1 hr after washing with PBS for 1 time. Blocking was done with 1% BSA in PBST for 1 hr at RT. Supernatants were diluted with PBS and pre-incubated with equal volume of 0.3 μg/ml human CXCL13 for 30 min at RT. 100 μl of antibody-antigen complex was then transferred into each cell wells for 30 min at RT. The samples were washed with 1×PBST for 3 times and 100 μl of 3 μg/ml of human Mab5261 antibody was add into each well to capture human CXCL13 and anti-human Fc-HRP was used to indirectly detect human CXCL13 when it bound to CHO-K1-CXCR5 cells. […] Reading was done at […].
Those antibodies were purified from hybridoma supernatants by binding with Protein G column and characterized by ELISA binding assays and cell-based blocking ELISA assays. […] 11/20 clones bound to both human CXCL13 and cynomolgus CXCL13 appeared to completely block human CXCL13 to human CXCR5. 11 blockers bound to both huCXCL13 and cynoCXCL13 were produced as chimeric human IgG1 antibodies for further Characterization.

Binder	EC50 (human CXCL13 [1]) [µg/mL]	EC50 (cynomolgus CXCL13) [µg/mL]	binding result (mouse CXCL13)	IC50 (human CXCL13 [2]) [µg/mL]	binding result (cynomolgus CXCL13)	EC50 (mouse CXCL13) [µg/mL]
415A3D1F4 (antibody, V domains shown, Hybridoma mAb) VH: EVKLLESGGGLVQAGGSMRLSCGAFGFTVTDFYINWIRQPAGKAPEWLGFMRNKANGYTTEYNPSVKGRFTISRNNTQNMPYLQMNTLRTEDTAIYYCARSRYNADDYYVGVMDVWGQGASVTVSS VL: DIQMTQFPASLSASLGETVSIECLASEDIYNNLAWYQQKPGKSPQLLIYYTNSLQDGVPSRFSGTGSGTQYSLKINSLESEDAATYFCLQDSEYPWTFGGGTKLKLK	0.0132	0.0711	no binding	0.698		
427C4F11 (antibody, V domains shown, Hybridoma mAb) VH: QVTLKESGPGILQPSQTLSLTCTFSGFSLTTYGMGVGWIRQPSGKGLEWLANIWWDDDKYSNPSLQSRLTISKDTSNNQAFLTITNVDTADTATYYCARSELVMPYVPFDYWGQGVRVTVSS VL: DIQMTQSPSSMSASLGDRVTITCQASQDIDNHLIWFQQKPGRSPRPMIYYATNLANGVPSRFSGSRSGSDYSLTISSLESEDMADYHCLQFKQYPFTFGSGTKLEIK	1.33			7.92	no binding	0.202
432C12E1 (antibody, V domains shown, Hybridoma mAb) VH: QVTLKESGPGILQPSQTLSLTCTFSGFSLSTYGMGVGWIRQPSGKGLEWLANIWWDDDKYYNPSLKNRLTISKDTSNNQAFLKITNVDTADTATYYCARSEIVMPYVPFDYWGQGVMVTVSS VL: DIQMTQSPSSMSASLGDRVTITCQASQDIGNDLIWFQQKPGKSPRPMIYYATNLANGVPSRFSGSGSGSVYSLTISSLESEDMADYHCLQFKQYPFTFGSGTKLEIK	5.1			12.7	no binding	0.744
64C10G1 (antibody, V domains shown, Hybridoma mAb) VH: EVQLVESGGGLVKPGGSLKLSCAASGFTFSSYAMSWVRQTPEKRLEWVATISDGGSDAYYPDNVKGRFTISRDNAKNNLYLQMSHLKSEDTAMYYCARDYYGSGYEDSPMDYWGQGTSVTVSS VL: DIQMTQSPSSLSASLGGKVTITCKASQDINKYIAWYQHKPGKGPRLLIHYTSTLQPGIPSRFSGSGSGRDYSFSISNLEPEDFATYYCLQYDNLYTFGGGTKLEIK	0.0314	0.347	no binding	0.33		
411A11E9 (antibody, V domains shown, Hybridoma mAb) VH: EVQLVESGGGLVQPGGSLKLSCVVSGFTFSDYYMAWVRQTPTKGLEWVASINYDGGDTYYRDSVKGRFTVSRNNAKSSLFLQMDSLRSEDTATYYCKTEEDYDGSYVMDAWGQGASVIVSS VL: DIQMTQSPSFLSASVGDRVTISCKASQNINKELTWYQQKLGKAPKRLIYNTNILQTGIPSRFSGSGSNTDYTLTISSLQPEDFATYFCLQQSSLYTFGAGTKLELK	0.0201	0.252	no binding	0.793		
19H7E10 (antibody, V domains shown, Hybridoma mAb) VH: EVQLQQSGPELVKPGASVKISCQASGYAFSDYYMNWVKQSHGKRLEWIGDINPNNDGTTYNQKFKDKATLTVDKSSSTAYMDLRSLTSEDSAVYYCARLSWSFFAMDYWGQGTSVTVSS VL: DIVMTQSHKFMSTSVGDRVSITCKASQDVSSGVAWYQQKPGQSPKVLIYSASHRHTGVPDRFTASGSGTDFTFTISSVQAEDLAVYYCQQYYNTPWTFGGGTKLEIK	0.0385	0.196	no binding	2.22		
156H3H7 (antibody, V domains shown, Hybridoma mAb) VH: EVQLQQSGPELVKPGASVKISCKASGYTFTDYYMNWVRQSHGKSLEWIGDINPNNGDTTYNQKFKGKATLTVDTSSSTVYMELRSLTSEDSAVYYCAGYDEDHYAMDYWGQGTSVTVSS VL: DYVMTQSHKFMSTSVGDRVSITCKASQDVSTGVAWYQQNPGQSPKLLIYSASHRYTGVPDRFTGSGSGTDFTFTISSVQAEDLAVYYCQQYYTTPWTFGGGTKLEIK	0.0134		no binding	4.59	no binding	
408E3F3 (antibody, V domains shown, Hybridoma mAb) VH: HVTLRESGPGVLQPSKTLSLTCSFSGFSLSTSAMVVSWIRQSSGMSLEWLAAIDWEGDKYYNPSLESRLTVSRDISDTQVFLRITSVDVADTATYYCAVMSSADSHSVLDAWGQGVSVTVSS VL: DIKMTQSPSFLSASVGDRVTINCKASQNIHNYLNWYQQKFGEAPRLLIYNTNNLQTGIPSRFSGSGSGTDFTLTISSLQPEDVATYFCLQHSSSLTFGSGTKLEIN	0.0237	0.0706	no binding	1.49		
537C8D7 (antibody, V domains shown, Hybridoma mAb) VH: EVQLVESGGGLVLPGRSLKLSCAASGFTFSDYAMAWVRQAPKKGLEWVATVFYDGSDTFYRDSVKGRFTISRDNAKSTLYLQMDSLRSEDTATYYCAREGDYYSRHVYVGYNWFPHWGQGTLVTVSS VL: DIRMTQSPASLSASLGETVNIECLTSEDINSELAWYQQKPGKFPQFLIYNANSLQDGVPSRFSGSGSGTQYSLKINSLQSEDVATYFCQQYNSYPLTFGSGTELEIK	0.0128			2.46	no binding	0.0375
119H10D6 (antibody, V domains shown, Hybridoma mAb) VH: QVQLQQSGAELMKPGASVKISCKATGYTFNTYWIEWVKQRPGHGLEWIGEILPGSESTDYNEKFKDKATFTADISSNTAYMQLSSLTSEDSAVYYCARDYYGYYFDYWGQGTTLTVSS VL: DIVMTQSHKFMSTSVGDRVSITCKASQDVSTAVVWYQQKPGQSPKLLIYSASYRYTGVPDRFSGSGSGTDFTFTISSVQAEDLAVYYCQQHYSSPRTFGGGTKLEIK	0.0393		no binding	0.533	no binding	
130D6G1 (antibody, V domains shown, Hybridoma mAb) VH: QVQLQQSGAELMKPGASVKISCKSTGYTFSTYWIEWVKQRPGHGLEWIGEILPGSDSTNSNEKFEGKATFTADTSSNTAYMQLSSLTSEDSAVYYCARDYYGFYFDYWGQGTTLTVSS VL: DIVMTQSHKFMSTSVGDRVNITCKASQDVSTAVAWYQQKPGQSPKLLIYSTSYRYTGVPDRFTGSGSGTDFTFTISNVQAEDLAVYYCQQHYTTPRTFGGGTKLEIK	0.0192		no binding	1.23	no binding	
418D3H6 (antibody, V domains shown, Hybridoma mAb) VH: QVTLKESGPGILQPSQTLSLTCTFSGFSLSTYGMGVGWIRQPSGKGLEWLANIWWDDDKYYNPSLINRLTISKNTSNNQAFLKITNVDAPDTATYYCARSELVMPYVPFDFWGQGIMVTVSS VL: DIQMTQSPSSLSASLGDRITMTCQASQDIGIELIWFQQKPGKSPWPVIYYTANLASGVPSRFSGSRSGSHYSLTISSLESEDMADYHCLQYKQYPFTFGSGTKLEIK	48.7			23.3	no binding	7.49
442C9H4 (antibody, V domains shown, Hybridoma mAb) VH: QVTLKESGPGILQPSQTLSLTCSFSGFSLSTYGMGVGWIRQPSGKGLEWLANIWWDDDKYYNPSLINRLTISKNTSNNQAFLKITNVDAPDTATYYCARSELVMPYVPFDFWGQGIMVTVSS VL: DIQMTQSPSSLSASLGDRITITCQASQDIGIDLIWFQQKPGKSPWPVIYYTANLASGVPSRFSGSRSGSHYSLTISSLESEDMADYHCLQYKQYPFTFGSGTKLEIK	9.85			18.2	no binding	2.96
339A9E7 (antibody, V domains shown, Hybridoma mAb) VH: DVQLQESGPGLVKPSQSLSLTCTVTGYSITSDYAWNWNRQFPGNKLEWMGYISYSGDTSYNPSLRSRISITRDTSKNQFFLQLNSVTAEDTAKYYCVAGHFDYWGQGTTLTVSS VL: not shown	0.0216	0.0245	no binding	13.3		
21H12D9 (antibody, V domains shown, Hybridoma mAb) VH: EVQLQQSGPVLVRPGASVKMSCKASGYTFTDYYMNWVKQSHGKSLEWIGVINPNNGGTTYKEKFKGKATLTVDKSSGTAYMELNSLTSEDSAVYYCARDDYDAGYWGQGTTLTVSS VL: DIVMTQFQKFMSTTVGDRVSITCKASQNVDTAVAWYQHKPGQSPKLLIYSASHRYTGVPDRFTGSGSGTDFTLTISNVQSEDLADYFCQQYTDFPLTFGAGTKLELK	0.0156	0.0619	no binding	1.27		
